Reference: publication PMC10073072

B1: METTL9^M6 (METTL9^46–318 with six mutations), Q9H1A3 R214A (protein)
chain: HMAAGGRKENHQWYVCNREKLCESLQAVFVQSYLDQGTQIFLNNSIEKSGWAAIQAYHSAVSSAFSLAMSRTSINGLLGRGSMFVFSPDQFQRLLKINPDWKTHRLLDLGAGDGEVTKIMSPHFEEIYATELSETMIWQLQKKKYRVLGINEWQNTGFQYDVISCLNLLDACDQPLTLLKDIRSVLEPTRGRVILALVLPFHPYVENVGGKWEKPSEILEIKGQNWEEQVNSLPEVFRKAGFVIEAFTRLPYLCEGDMYNDYYVLDDAVFVLKPV

Columns and labels:
METTL9^M6 R214A (human) = METTL9^M6 R214A (human) (UniProt Q9H1A3); assay: ITC; METTL9 protein and synthetic peptide; conditions and who was titrated not shown
[1] = target: T1, SLC39A5^369–380 peptide, Q6ZMH5; assay: ITC; conditions: chain shown with the change;; parent: 9.0 µM
T1 chain: GHQGHSHGHQGGY

Binder | fold weaker binding affinity than METTL9^M6 (METTL9^M6 R214A (human)) [fold] | Kd [1] [µM]
GHQGHSHGHQGGY [SLC39A5^369–380 peptide] | 5 | –
B1 | – | 51
